Experimental data reported in patent US20200024330A1.

Assays:
Experiment in all cases: cell-based or functional assay
[1] = target: HIV-1 Env of isolate 94UG103 (pseudovirus) (HIV-1)
[2] = target: HIV-1 Env of isolate 92UG031 (pseudovirus) (HIV-1)
[3] = target: HIV-1 Env of isolate MG RM-A-008 (pseudovirus) (HIV-1)
[4] = target: HIV-1 Env of isolate MGRM-D-004 (subtype D), on pseudovirus (HIV-1)
[5] = target: HIV-1 Env of isolate 98CN009 (subtype CRF07_BC), on pseudovirus (HIV-1)
[6] = target: HIV-1 Env of isolate MGRM-D-002 (subtype D), on pseudovirus (HIV-1)
[7] = target: HIV-1 Env of isolate MG RM-A-006 (pseudovirus) (HIV-1)
[8] = target: HIV-1 Env of isolate 94 KE 105 (pseudovirus) (HIV-1)
[9] = target: HIV-1 Env of isolate 92WR020 (pseudovirus) (HIV-1)
[10] = target: HIV-1 Env of isolate MGRM-AE-005 (pseudovirus) (HIV-1)
[11] = target: HIV-1 Env of isolate MG RM-A-014 (pseudovirus) (HIV-1)
[12] = target: HIV-1 Env of isolate MGRM-Chronic-B-003 (HIV-1)
[13] = target: HIV-1 Env of isolate 92TH021 (pseudovirus) (HIV-1)
[14] = target: HIV-1 Env of isolate MG RM-A-013 (pseudovirus) (HIV-1)
[15] = target: HIV-1 Env of isolate 93UG077 (pseudovirus) (HIV-1)
[16] = target: HIV-1 Env of isolate 92UG005 (subtype D), on pseudovirus (HIV-1)
[17] = target: HIV-1 Env of isolate 92WR021 (pseudovirus) (HIV-1)
[18] = target: HIV-1 Env of isolate 92RW008 (clade A), on pseudovirus (HIV-1)
[19] = target: HIV-1 Env of isolate MGRM-D-008 (subtype D), on pseudovirus (HIV-1)
[20] = target: HIV-1 Env of isolate MG RM-A-009 (pseudovirus) (HIV-1)
[21] = target: HIV-1 Env of isolate 92UG046 (subtype D), on pseudovirus (HIV-1)
[22] = target: HIV-1 Env of isolate MG RM-A-010 (pseudovirus) (HIV-1)
[23] = target: HIV-1 Env of isolate 92WR024 (pseudovirus) (HIV-1)
[24] = target: HIV-1 Env of isolate MGRM-Chronic-B-008 (HIV-1)
[25] = target: HIV-1 Env of isolate APV_17 (HIV-1)
[26] = target: HIV-1 Env of isolate CMU02 (pseudovirus) (HIV-1)
[27] = target: HIV-1 Env of isolate 93TH305 (HIV-1)
[28] = target: HIV-1 Env of isolate MG RM-A-012 (pseudovirus) (HIV-1)
[29] = target: HIV-1 Env of isolate MGRM-AE-001 (pseudovirus) (HIV-1)
[30] = target: HIV-1 Env of isolate MGRM-Chronic-B-004 (HIV-1)
[31] = target: HIV-1 Env of isolate MG RM-A-011 (pseudovirus) (HIV-1)
[32] = target: HIV-1 Env of isolate 92BR020 (HIV-1)
[33] = target: HIV-1 Env of isolate 93WR029 (pseudovirus) (HIV-1)
[34] = target: HIV-1 Env of isolate 92UG024 (subtype D), on pseudovirus (HIV-1)
[35] = target: HIV-1 Env of isolate MGRM-D-001 (subtype D), on pseudovirus (HIV-1)
[36] = target: HIV-1 Env of isolate VLGCA1 (pseudovirus) (HIV-1)
[37] = target: HIV-1 Env of isolate MGRM-AE-004 (pseudovirus) (HIV-1)
[38] = target: HIV-1 Env of isolate JRFL (HIV-1)
[39] = target: HIV-1 Env of isolate MGRM-Chronic-B-002 (HIV-1)
[40] = target: HIV-1 Env of isolate 92UG114 (subtype D), on pseudovirus (HIV-1)
[41] = target: HIV-1 Env of isolate 92UG001 (subtype D), on pseudovirus (HIV-1)
[42] = target: HIV-1 Env of isolate MGRM-D-005 (subtype D), on pseudovirus (HIV-1)
[43] = target: HIV-1 Env of isolate MGRM-AE-003 (pseudovirus) (HIV-1)
[44] = target: HIV-1 Env of isolate APV_6 (HIV-1)
[45] = target: HIV-1 Env of isolate 98CN006 (subtype CRF08 BC), on pseudovirus (HIV-1)
[46] = target: HIV-1 Env of isolate APV_13 (HIV-1)
[47] = target: HIV-1 Env of isolate MGRM-AE-002 (pseudovirus) (HIV-1)
[48] = target: HIV-1 Env of isolate MGRM-AE-006 (pseudovirus) (HIV-1)
[49] = target: HIV-1 Env of isolate 6535.3 (HIV-1)
[50] = target: HIV-1 Env of isolate MG RM-A-007 (pseudovirus) (HIV-1)
[51] = target: HIV-1 Env of isolate 92RW009 (clade A), on pseudovirus (HIV-1)
[52] = target: HIV-1 Env of isolate MGRM-D-003 (subtype D), on pseudovirus (HIV-1)
[53] = target: HIV-1 Env of isolate MG RM-A-005 (pseudovirus) (HIV-1)
[54] = target: HIV-1 Env of isolate MGRM-Chronic-B-001 (HIV-1)
[55] = target: HIV-1 Env of isolate 92UG037 (pseudovirus) (HIV-1)
[56] = target: HIV-1 Env of isolate CAAN.A2 (HIV-1)
[57] = target: HIV-1 92RW020 envelope glycoprotein (Env) on pseudovirus (HIV-1)
[58] = target: HIV-1 Env of isolate 92WR026 (pseudovirus) (HIV-1)
[59] = target: HIV-1 92BR020 envelope glycoprotein (Env) on pseudovirus (HIV-1)
[60] = target: HIV-1 92UG005 envelope glycoprotein (Env) on pseudovirus (HIV-1)
[61] = target: HIV-1 92TH021 envelope glycoprotein (Env) on pseudovirus (HIV-1)
[62] = target: HIV-1 92UG024 envelope glycoprotein (Env) on pseudovirus (HIV-1)
[63] = target: HIV-1 CMU02 envelope glycoprotein (Env) on pseudovirus (HIV-1)
[64] = target: aMLV envelope protein on pseudovirus (negative control virus)
[65] = target: HIV-1 MGRM-D-001 envelope glycoprotein (Env) on pseudovirus (HIV-1)
[66] = target: HIV-1 MGRM-AG-005 envelope glycoprotein (Env) on pseudovirus (HIV-1)
[67] = target: HIV-1 MGRM-D-018 envelope glycoprotein (Env) on pseudovirus (HIV-1)

4995_E20 (PGT-142) (antibody), sequence (VH): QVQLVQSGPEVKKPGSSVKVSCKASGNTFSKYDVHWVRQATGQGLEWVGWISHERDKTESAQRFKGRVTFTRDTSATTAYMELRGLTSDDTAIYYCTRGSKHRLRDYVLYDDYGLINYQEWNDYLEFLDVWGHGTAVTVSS
4995_E20 (PGT-142) (antibody), sequence (VL): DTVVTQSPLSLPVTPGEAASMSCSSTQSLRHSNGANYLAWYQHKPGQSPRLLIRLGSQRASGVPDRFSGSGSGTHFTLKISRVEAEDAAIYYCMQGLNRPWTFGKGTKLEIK

4995_E20 (PGT-142) (antibody)
IC50 (µg/mL), pseudovirus neutralization [1]: > 50 µg/mL
IC50 (µg/mL), pseudovirus neutralization [2]: 0.05 µg/mL
IC50 (µg/mL), pseudovirus neutralization [3]: > 50 µg/mL
IC50, pseudovirus neutralization [4]: > 50 µg/mL
IC50, pseudovirus neutralization [5]: 4 µg/mL
IC50, pseudovirus neutralization [6]: > 50 µg/mL
IC50 (µg/mL), pseudovirus neutralization [7]: > 50 µg/mL
IC50 (µg/mL), pseudovirus neutralization [8]: 0.19 µg/mL
IC50 (µg/mL), pseudovirus neutralization [9]: 31.5 µg/mL
IC50 (µg/mL), pseudovirus neutralization [10]: > 50 µg/mL
IC50 (µg/mL), pseudovirus neutralization [11]: 0.367 µg/mL
IC50 [12]: 0.484 µg/mL
IC50 (µg/mL), pseudovirus neutralization [13]: 0.002 µg/mL
IC50 (µg/mL), pseudovirus neutralization [14]: 3.77 µg/mL
IC50 (µg/mL), pseudovirus neutralization [15]: > 50 µg/mL
IC50, pseudovirus neutralization [16]: > 50 µg/mL
IC50 (µg/mL), pseudovirus neutralization [17]: > 50 µg/mL
IC50, single-round pseudovirus neutralization [18]: 0.447 µg/mL
IC50, pseudovirus neutralization [19]: 0.174 µg/mL
IC50 (µg/mL), pseudovirus neutralization [20]: 0.058 µg/mL
IC50, pseudovirus neutralization [21]: > 50 µg/mL
IC50 (µg/mL), pseudovirus neutralization [22]: 0.015 µg/mL
IC50 (µg/mL), pseudovirus neutralization [23]: 0.069 µg/mL
IC50 [24]: > 50 µg/mL
IC50 [25]: 0.628 µg/mL
IC50 (µg/mL), pseudovirus neutralization [26]: > 50 µg/mL
IC50 [27]: 5.86 µg/mL
IC50 (µg/mL), pseudovirus neutralization [28]: > 50 µg/mL
IC50 (µg/mL), pseudovirus neutralization [29]: > 50 µg/mL
IC50 [30]: 0.172 µg/mL
IC50 (µg/mL), pseudovirus neutralization [31]: > 50 µg/mL
IC50 [32]: 15.1 µg/mL
IC50 (µg/mL), pseudovirus neutralization [33]: 0.014 µg/mL
IC50, pseudovirus neutralization [34]: > 50 µg/mL
IC50, pseudovirus neutralization [35]: > 50 µg/mL
IC50 (µg/mL), pseudovirus neutralization [36]: 2.75 µg/mL
IC50 (µg/mL), pseudovirus neutralization [37]: 0.001 µg/mL
IC50 [38]: > 50 µg/mL
IC50 [39]: > 50 µg/mL
IC50, pseudovirus neutralization [40]: > 50 µg/mL
IC50, pseudovirus neutralization [41]: > 50 µg/mL
IC50, pseudovirus neutralization [42]: 1.15 µg/mL
IC50 (µg/mL), pseudovirus neutralization [43]: > 50 µg/mL
IC50 [44]: 4.72 µg/mL
IC50, pseudovirus neutralization [45]: > 50 µg/mL
IC50 [46]: > 50 µg/mL
IC50 (µg/mL), pseudovirus neutralization [47]: > 50 µg/mL
IC50 (µg/mL), pseudovirus neutralization [48]: > 50 µg/mL
IC50 [49]: > 50 µg/mL
IC50 (µg/mL), pseudovirus neutralization [50]: > 50 µg/mL
IC50, single-round pseudovirus neutralization [51]: 6 ng/mL
IC50, pseudovirus neutralization [52]: > 50 µg/mL
IC50 (µg/mL), pseudovirus neutralization [53]: 9.7 µg/mL
IC50 [54]: > 50 µg/mL
IC50 (µg/mL), pseudovirus neutralization [55]: 0.557 µg/mL
IC50 [56]: > 50 µg/mL
IC50 (ug/ml), neutralizing activity [57]: > 10 µg/mL
IC50 (µg/mL), pseudovirus neutralization [58]: 1.78 µg/mL
IC50 (ug/ml), neutralizing activity [59]: > 10 µg/mL

PGT-121 monoclonal antibody
IC50, pseudovirus neutralization [60]: > 10 µg/mL
IC50, pseudovirus neutralization [61]: > 10 µg/mL
IC50, pseudovirus neutralization [62]: > 10 µg/mL
IC50, pseudovirus neutralization [63]: > 10 µg/mL
IC50, pseudovirus neutralization [64]: > 10 µg/mL

PGT-122 monoclonal antibody
IC50, pseudovirus neutralization [60]: > 10 µg/mL
IC50, pseudovirus neutralization [65]: 0.867 µg/mL
IC50, pseudovirus neutralization [61]: > 10 µg/mL
IC50, pseudovirus neutralization [66]: > 10 µg/mL
IC50, pseudovirus neutralization [62]: > 10 µg/mL
IC50, pseudovirus neutralization [63]: > 10 µg/mL
IC50, pseudovirus neutralization [64]: > 10 µg/mL
IC50, pseudovirus neutralization [67]: 0.0115 µg/mL
